According to patent US20130197070, “AXL RECEPTOR TYROSINE KINASE APTAMER INHIBITOR FOR USE IN THERAPY” (CNR - CONSIGLIO NAZIONALE DELLE RICERCHE, published 2013):

Key:
[1] = biological target: T1, Dtk (Tyro3) extracellular domain (EC-Dtk) (UniProt Q06418 Q06418:41-429); assay: filter; PBS, 0.01% BSA, 37 C, 15 min; unrelated aptamer background subtracted; conditions: tags: soluble extracellular domain, R&D Systems; label: 5'-32P
T1 sequence: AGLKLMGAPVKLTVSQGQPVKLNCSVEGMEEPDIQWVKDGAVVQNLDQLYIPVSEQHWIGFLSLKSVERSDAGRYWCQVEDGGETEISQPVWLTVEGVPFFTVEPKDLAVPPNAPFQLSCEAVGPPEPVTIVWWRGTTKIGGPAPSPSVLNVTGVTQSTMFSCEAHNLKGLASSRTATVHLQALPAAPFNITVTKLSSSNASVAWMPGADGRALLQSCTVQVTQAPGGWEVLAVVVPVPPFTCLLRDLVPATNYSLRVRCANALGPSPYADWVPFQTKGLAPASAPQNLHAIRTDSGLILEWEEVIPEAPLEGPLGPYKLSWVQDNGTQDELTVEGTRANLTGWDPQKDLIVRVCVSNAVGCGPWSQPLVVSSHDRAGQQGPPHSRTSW
Description: (§1) 1 nM of radiolabelled aptamers (GL21 52-85 or Unrelated) were incubated with 1, 3.2, 10, 32, 100, 320 and 1000 nM of Axl, Dtk, Mer soluble extracellular domain (all from R&D Systems, Minneapolis, Minn.) for 15 min at 37° in phosphate-buffered saline (PBS) supplemented with 0.01% bovine serum albumin.
(§2) After incubation, the aptamer-protein mix was passed through nitrocellulose membrane filter (Millipore Co., Bedford, Mass.) and filters were counted.

[2] = biological target: Axl extracellular domain (EC-Axl) (UniProt P30530 P30530:26-451); assay: as above; conditions: tags: soluble extracellular domain, R&D Systems; label: 5'-32P
Sequence of Axl extracellular domain (EC-Axl) (P30530 26-451, one chain of several): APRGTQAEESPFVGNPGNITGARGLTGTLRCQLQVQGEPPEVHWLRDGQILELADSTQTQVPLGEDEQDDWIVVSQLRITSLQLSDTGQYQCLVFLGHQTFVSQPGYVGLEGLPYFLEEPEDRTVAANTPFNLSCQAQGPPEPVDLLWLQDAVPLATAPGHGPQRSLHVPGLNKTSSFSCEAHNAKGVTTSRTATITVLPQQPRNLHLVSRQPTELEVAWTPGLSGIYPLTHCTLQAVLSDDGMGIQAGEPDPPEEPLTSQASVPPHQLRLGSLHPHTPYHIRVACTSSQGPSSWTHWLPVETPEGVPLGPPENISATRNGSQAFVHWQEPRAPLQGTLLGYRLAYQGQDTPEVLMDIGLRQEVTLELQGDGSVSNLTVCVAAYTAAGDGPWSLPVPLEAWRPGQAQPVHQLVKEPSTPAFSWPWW
Description: as §1, §2

[3] = biological target: T2, Mer extracellular domain (EC-Mer) (UniProt Q12866 Q12866:21-505); assay: filter; no Kd calculable up to 1000 nM protein; no binding or affinity at least 10^3 lower; PBS, 0.01% BSA, 37 C; conditions: tags: soluble extracellular domain, R&D Systems; label: 5'-32P
T2 sequence: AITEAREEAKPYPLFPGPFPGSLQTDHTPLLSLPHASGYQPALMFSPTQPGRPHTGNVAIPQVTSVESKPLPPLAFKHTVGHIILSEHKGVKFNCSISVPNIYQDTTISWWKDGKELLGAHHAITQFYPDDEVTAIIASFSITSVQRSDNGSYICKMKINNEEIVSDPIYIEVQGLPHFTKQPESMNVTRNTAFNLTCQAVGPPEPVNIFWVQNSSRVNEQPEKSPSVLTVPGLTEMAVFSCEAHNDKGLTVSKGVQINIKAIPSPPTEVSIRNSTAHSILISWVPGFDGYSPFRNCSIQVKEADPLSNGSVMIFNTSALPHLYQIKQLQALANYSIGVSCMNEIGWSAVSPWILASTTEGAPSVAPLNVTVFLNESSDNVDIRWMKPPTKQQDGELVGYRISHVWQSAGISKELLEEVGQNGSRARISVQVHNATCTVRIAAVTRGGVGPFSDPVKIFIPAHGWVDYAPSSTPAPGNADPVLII
Description: as §1, §2

[4] = biological target: Axl receptor tyrosine kinase (cell surface) (Homo sapiens, UniProt P30530 P30530:26-894); assay: binding to Axl-positive U87MG cells; reduced by Axl shRNA; binds Axl-transfected SKBr3 but not parental SKBr3; conditions: label: 5'-32P
Sequence of Axl receptor tyrosine kinase (cell surface) (P30530 26-894, one chain of several): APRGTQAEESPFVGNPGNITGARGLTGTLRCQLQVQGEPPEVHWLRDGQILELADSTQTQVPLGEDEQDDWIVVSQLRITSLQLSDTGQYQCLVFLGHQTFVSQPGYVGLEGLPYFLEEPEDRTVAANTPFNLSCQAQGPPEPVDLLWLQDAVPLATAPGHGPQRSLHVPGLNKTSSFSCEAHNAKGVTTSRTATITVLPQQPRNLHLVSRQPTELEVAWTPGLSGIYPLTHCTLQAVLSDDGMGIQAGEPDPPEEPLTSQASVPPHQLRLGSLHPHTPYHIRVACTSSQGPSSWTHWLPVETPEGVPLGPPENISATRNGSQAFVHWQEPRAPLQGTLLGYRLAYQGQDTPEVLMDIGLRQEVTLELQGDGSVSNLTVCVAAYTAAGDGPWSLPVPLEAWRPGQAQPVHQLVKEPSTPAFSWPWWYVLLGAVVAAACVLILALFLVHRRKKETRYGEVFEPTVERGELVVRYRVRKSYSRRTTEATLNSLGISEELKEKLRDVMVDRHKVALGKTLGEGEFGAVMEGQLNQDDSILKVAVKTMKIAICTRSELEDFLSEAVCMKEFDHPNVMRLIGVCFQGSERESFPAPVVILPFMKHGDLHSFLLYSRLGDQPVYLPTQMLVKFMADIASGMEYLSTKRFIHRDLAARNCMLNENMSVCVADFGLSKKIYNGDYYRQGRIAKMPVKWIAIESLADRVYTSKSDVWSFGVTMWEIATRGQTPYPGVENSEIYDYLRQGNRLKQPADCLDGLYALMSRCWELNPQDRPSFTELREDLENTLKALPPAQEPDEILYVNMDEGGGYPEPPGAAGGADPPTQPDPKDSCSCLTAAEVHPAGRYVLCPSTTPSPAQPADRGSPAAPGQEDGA

AUGAUCAAUCGCCUCAAUUCGACAGGAGGCUCAC (ssRNA, 2'-F on all pyrimidines) [GL21 52-85 (GL21.T)]
Kd [1]: 47 nM
Kd [2]: 13 nM
binding result [3]: no binding
Kd [4]: 90 nM
